# PMC5418239, “Characterization of CD4 T Cell Epitopes of Infliximab and Rituximab Identified from Healthy Donors” (Frontiers in Immunology, 2017)
# Columns and labels:
# [1] = tested on: CD4 T cell lines; assay: Peptide specificity of antibody-specific CD4 T cell lines from healthy donors (IFN-γ ELISPOT); assay type: cell-based, human; settings: IFN-γ ELISPOT, antibody 3 µM on DCs, peptides 10 µg/mL
# Text: Peripheral blood mononuclear cells (PBMCs) were obtained from blood cells collected at the Etablissement Français du Sang (EFS, Rungis, France), as buffy coat preparations from anonymous healthy donors who gave informed consent, in accordance with EFS guidelines. Antibody-specific CD4 T cell lines were generated as described previously ([28]). DCs were produced from plastic-adherent cells of PBMCs, while CD4 T cells were isolated from PBMCs by using magnetic microbeads (Miltenyi Biotech, Paris, France). DCs were loaded overnight at 37°C with the therapeutic antibody or with KLH used as a positive control (1 µM) and matured with lipopolysaccharide (1 µg/mL). CD4 T cells (200,000/w) were stimulated by protein-loaded DCs (20,000/w) and cultured during 21 days ([28]). Their peptide specificity was tested by interferon-γ (IFN-γ) ELISPOT ([28]). Spot number was determined by the AID ELISPOT Reader System (AID).
# CD4 T cell lines were also raised against KLH to assess the ability of the donors to generate specific T cell responses (Figure S2 in Supplementary Material). Each independent T cell line (CD4 T cells present in a single well) was evaluated for its specificity using pools of 45 overlapping peptides encompassing the entire variable regions (VH and VL) of the therapeutic antibodies (Tables S3 and S4 in Supplementary Material), individual peptides, and DCs loaded with the therapeutic antibodies (Figure 1). […] HLA restriction was evaluated for T cell lines of donors #225 and #251 by inhibition experiments with anti-HLA class II antibodies.
# T cells were incubated with autologous DCs alone (none) or with DCs previously loaded with each antibody (3 µM) or with autologous unloaded peripheral blood mononuclear cells (PBMCs) (no pool) or PBMCs loaded with a pool of peptides (10 µg/mL) (left panels) and with individual peptides (right panels).
# Figure 2 Specificity and restriction of T cell lines generated from healthy donors. […] T cells were incubated with autologous unloaded peripheral blood mononuclear cells (PBMCs) (none) and with PBMCs loaded with individual peptides. […] (B) For inhibition assays, anti-HLA-DR (L243), -DQ (SPVL3), and -DP (B7/21) antibodies were added at 10 µg/mL to the IFN-γ ELISPOT.
# Donors are identified by a number.
# [2] = tested on: HLA-DR molecules of dendritic cells (DCs); assay: MHC-associated peptide proteomics (MAPPs) assay; parameters: species or system human
# Procedure: Briefly, CD14 positive mononuclear cells were purified from PBMCs isolated from human buffy coats sampled from consented healthy donors (Blood Donation Center Bern, Bern, Switzerland) and differentiated into immature DCs ([37]). Immature DCs were matured by adding lipopolysaccharide (1 µg/mL, Sigma) and loaded separately with one of the chimeric antibodies. After incubation for 24 h at 37°C and 5% CO2, DCs were harvested, washed in PBS, and lysed in hypotonic buffer containing 1% Triton X-100. After immunoprecipitation of HLA-DR molecules with Mab L243-conjugated beads, peptides were eluted from HLA-DR molecules by adding 0.1% trifluoroacetic acid (Fluka, Buchs, Switzerland) at 37°C and lyophilized using an Eppendorf Concentrator 5301 (Eppendorf AG, Hamburg, Germany). Lyophilized peptides were resuspended in hydrophilic buffer containing 5% acetonitrile and 1.1% formic acid. Peptide composition was analyzed by liquid chromatography (nano capillary system, Dionex Corporation, Sunnyvale, CA, USA) on a self-packed fused-silica C18 reversed-phase nano-high-performance liquid chromatography column connected to a mass spectrometer (Q-Exactive, Thermo, CA, USA) via electrospray ionization (LC–ESI–MS/MS). Peptides were identified via a database search approach using the SEQUEST algorithm as detailed ([37]).
# [3] = Levels of circulating Ifx or Rtx (bridging ELISA); assay type: in vivo, human
# [4] = Levels of anti-drug antibodies (ADAs) (bridging ELISA); assay type: in vivo, human
# [5] = tested on: patients; settings: Rtx ref [5]–[7]; Ifx ref [8]–[10]; alemtuzumab ref [11]; vedolizumab ref [12]; adalimumab ref [10], [13], [14]; cited from earlier work
# Text: However, a large subset of patients develops neutralizing antidrug antibodies (ADAs) that reduce their therapeutic efficacy ([1]) and induce allergic responses ([2]). As immunological tolerance is expected to regulate the response to self-sequences ([3]), almost all therapeutic antibodies are humanized, with various degrees of antibody humanization ([4]).
# [6] = monocyte-derived DCs of 34 healthy donors exposed to Rtx or Ifx, LC–ESI–MS/MS
substance,measurement,setting,value
Ifx: chimeric antibody anti-TNFα infliximab (Remicade),specificity of T cell line 113.6,[1]; donor #113,not for Ifx
same,specificity of T cell line 247.26,[1]; donor #247,specific for Ifx
same,clusters that overlapped CDR regions,[2]; monocyte-derived DCs of 34 healthy donors,four of the eight
same,number of clusters of HLA-DR-associated peptides in VH,[2]; [6],four
same,number of clusters of HLA-DR-associated peptides in VL,[2]; [6],four
same,circulating drug level,"[3]; patient C, uveitis",<0.1 µg/mL
same,circulating drug level,"[3]; patient D, Crohn’s",0 µg/mL
same,circulating drug level,"[3]; patient E, Crohn’s",<0.1 µg/mL
same,circulating drug level,"[3]; patient G, Crohn’s",0.13 µg/mL
same,circulating drug level,"[3]; patient I, Crohn’s",0.11 µg/mL
same,circulating drug level,"[3]; patient J, Crohn’s",<0.1 µg/mL
same,ADA level,"[4]; patient C, uveitis",63 U/ml
same,ADA level,"[4]; patient D, Crohn’s",61 U/ml
same,ADA level,"[4]; patient E, Crohn’s",>200 U/ml
same,ADA level,"[4]; patient G, Crohn’s",>200 U/ml
same,ADA level,"[4]; patient I, Crohn’s",>200 U/ml
same,ADA level,"[4]; patient J, Crohn’s",95 U/ml
same,induction of ADAs in patients,[5],known to elicit specific ADAs in multiple patients
